Where “and” joins values, the source holds several entries; their conditions need not be identical. Identical values can stand only once.
Target: ILz(6):TRAIL (human) (UniProt P50591)
Assay: SEC

stoichiometry N: 3 and 6
Substance: ILz(6):TRAIL (from UniProt P50591 114-281) (ligand)

From PMC5070708
